Measured values from patent US20160176970A1 (published 2016).

Target: T1, pig α2β1 integrin (pig, UniProt F1SMF4 28-1178; Q9GLP0 21-798)
T1 construct: whole, on cells; Tested with whole blood
Assay: FACS on whole blood, PE-coupled goat anti-mouse IgG

B1: anti-α2 integrin mAb purified from hybridoma supernatant (murine) (antibody, mouse IgG2a, kappa)
light: NIVLTQSPASLAVSLGQRATISCRASESVESYGNSFIYWYQQKPGQAPKLLIYLASNLASGVPARFSGSGSRTDFTLTIDPVEADDAATYYCQQNNEDPYTFGGGTKLEIKRADAAPTVSIFPPSSEQLTSGGASVVCFLNNFYPKDINVKWKIDGSERQNGVLNSWTDQDSKDSTYSMSSTLTLTKDEYERHNSYTCEATHKTSTSPIVKSFNRNEC
heavy: QVQLHQPGAELVKPGAPVKLSCKASGYTFTSYWMNWVKQRPGRGLEWIGRIDPSDSETHYNQKFKDKATLTVDKSSSTAYIQLSSLTSEDSAVYYCAKVGRGYFDYWGQGTTLTVSSAKTTAPSVYPLAPVCGDTTGSSVTLGCLVKGYFPEPVTLTWNSGSLSSGVHTFPAVLQSDLYTLSSSVTVTSSTWPSQSITCNVAHPASSTKVDKKIEPRGPTIKPCPPCKCPAPNLLGGPSVFIFPPKIKDVLMISLSPIVTCVVVDVSEDDPDVQISWFVNNVEVHTAQTQTHREDYNSTLRVVSALPIQHQDWMSGKEFKCKVNNKDLPAPIERTISKPKGSVRAPQVYVLPPPEEEMTKKQVTLTCMVTDFMPEDIYVEWTNNGKTELNYKNTEPVLDSDGSYFMYSKLRVEKKNWVERNSYSCSVVHEGLHNHHTTKSFSRTPGK
notes: also called α2 mAb from hybridoma supernatant; anti-α2 integrin monoclonal mouse antibody
Question: Does B1 bind?
Answer: Result: no binding
